Tested on: Bacillus subtilis
Experiment: cleaved RNA product abundance (RNA/gDNA barcode ratio) relative to median wild-type variant (ratio to wild type); higher = more accumulation of the downstream cleavage product
Details: experiment (reporter, strain, medium): exp 8a: truncated aprE reporter, strain BJT201 with 2% xylose (RNase J1 expressed); cleavage site: glnRA (positions -5 to +31 mutated)
Procedure, shortened: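 In LB at 37°C, B. subtilis cultures went from OD600 0.0003 to 0.3. Their chromosomes held barcoded reporter mRNAs, truncated aprE or tetM, with RNase Y cleavage-site windows mutagenized via oligos at a 9% error rate. Cleaved RNA, chosen by gel, was reverse transcribed and barcode-sequenced alongside genomic DNA barcodes with UMI collapsing, giving a per-construct RNA:gDNA ratio scaled to the median construct with the unmutated site. This scaled ratio is termed cleaved product abundance.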

Sequence	cleaved RNA product abundance
CGACATGTCCCGCTTCTTTCATTAATCCGTTAGCAACTGTTTTTCTATAAACATTTACCTTTTAAGAGGAGGAAT	0.459
CGACATGTCCCGCTTCTTTCATTAATCCGTTAGCAACTGTTTTTCTATATACAATTACCTTTTAAGAGGAGGAAT	0.846
CGACATGTCCCGCTTCTTTCATTAATCCGTTAGCAACTGTTTTTCTATATACACTTACCTTTTAAGAGGAGGAAT	0.721
CGACATGTCCCGCTTCTTTCATTAATCCGTTAGCAACTGTTTTTCTATATACATATACCTTTTAAGAGGAGGAAT	0.656
CGACATGTCCCGCTTCTTTCATTAATCCGTTAGCAACTGTTTTTCTATATACATTTAACTTTTAAGAGGAGGAAT	0.675
CGACATGTCCCGCTTCTTTCATTAATCCGTTAGCAACTGTTTTTCTATATACATTTACATTTTAAGAGGAGGAAT	0.576
CGACATGTCCCGCTTCTTTCATTAATCCGTTAGCAACTGTTTTTCTATATACATTTACCTTTTAAGAGGAGGAAT	0.576
CGACATGTCCCGCTTCTTTCATTAATCCGTTAGCAACTGTTTTTCTATATACATTTACGTTTTAAGAGGAGGAAT	0.305
CGACATGTCCCGCTTCTTTCATTAATCCGTTAGCAACTGTTTTTCTATATACATTTTACCTTTTAAGAGGAGGAA	0.435
CGACATGTCCCGCTTCTTTCATTAATCCGTTAGCAACTGTTTTTCTATATAGATTTACCTTTTAAGAGGAGGAAT	0.925
CGACATGTCCCGCTTCTTTCATTAATCCGTTAGCAACTGTTTTTCTATATATATTTACCTTTTAAGAGGAGGAAT	0.668
CGACATGTCCCGCTTCTTTCATTAATCCGTTAGCAACTGTTTTTCTATATTCATTTACCTTTTAAGAGGAGGAAT	0.189
CGACATGTCCCGCTTCTTTCATTAATCCGTTAGCAACTGTTTTTCTCTATACATTTACCTTTTAAGAGGAGGAAT	0.337
CGACATGTCCCGCTTCTTTCATTAATCCGTTAGCAACTGTTTTTCTGTATACATTTACCTTTTAAGAGGAGGAAT	0.357
CGACATGTCCCGCTTCTTTCATTAATCCGTTAGCAACTGTTTTTGCTATATACATTTACCTTTTAAGAGGAGGAA	0.946
CGACATGTCCCGCTTCTTTCATTAATCCGTTAGCAACTGTTTTTGTATATACATTTACCTTTTAAGAGGAGGAAT	0.494
CGACATGTCCCGCTTCTTTCATTAATCCGTTAGCAACTGTTTTTTTATATACATTTACCTTTTAAGAGGAGGAAT	0.718
CGACATGTCCCGCTTCTTTCATTAATCCGTTAGCAACTTATTTGCTATATACATTTACCTTTTAAGAGGAGGAAT	1.85
CGACATGTCCCGCTTCTTTCATTAATCCGTTAGCAACTTGTTTTGCTATATACATTTACCTTTTAAGAGGAGGAA	1.01
CGACATGTCCCGCTTCTTTCATTAATCCGTTAGCAACTTTATTGCTATATACATTTACCTTTTAAGAGGAGGAAT	0.922
CGACATGTCCCGCTTCTTTCATTAATCCGTTAGCAACTTTTGTGCTATATACATTTACCTTTTAAGAGGAGGAAT	1.05
CGACATGTCCCGCTTCTTTCATTAATCCGTTAGCAACTTTTTAGCTATATACATTTACCTTTTAAGAGGAGGAAT	0.565
CGACATGTCCCGCTTCTTTCATTAATCCGTTAGCAACTTTTTCGCTATATACATTTACCTTTTAAGAGGAGGAAT	0.662
CGACATGTCCCGCTTCTTTCATTAATCCGTTAGCAACTTTTTGGCTATATACATTTACCTTTTAAGAGGAGGAAT	0.563
CGACATGTCCCGCTTCTTTCATTAATCCGTTAGCAACTTTTTTACTATATACATTTACCTTTTAAGAGGAGGAAT	0.744

Sequence	cleaved RNA product abundance
CGACATGTCCCGCTTCTTTCATTAATCCGTTAGCAACTTTTTTCCTATATACATTTACCTTTTAAGAGGAGGAAT	0.697
CGACATGTCCCGCTTCTTTCATTAATCCGTTAGCAACTTTTTTGCAATATACATTTACCTTTTAAGAGGAGGAAT	0.494
CGACATGTCCCGCTTCTTTCATTAATCCGTTAGCAACTTTTTTGCTATAAACATTTACCTTTTAAGAGGAGGAAT	1.58
CGACATGTCCCGCTTCTTTCATTAATCCGTTAGCAACTTTTTTGCTATATACAATTACCTTTTAAGAGGAGGAAT	1.63
CGACATGTCCCGCTTCTTTCATTAATCCGTTAGCAACTTTTTTGCTATATACATATACCTTTTAAGAGGAGGAAT	2.12
CGACATGTCCCGCTTCTTTCATTAATCCGTTAGCAACTTTTTTGCTATATACATTTAACTTTTAAGAGGAGGAAT	1.81
CGACATGTCCCGCTTCTTTCATTAATCCGTTAGCAACTTTTTTGCTATATACATTTACATTTTAAGAGGAGGAAT	1.72
CGACATGTCCCGCTTCTTTCATTAATCCGTTAGCAACTTTTTTGCTATATACATTTACCATTTAAGAGGAGGAAT	1.97
CGACATGTCCCGCTTCTTTCATTAATCCGTTAGCAACTTTTTTGCTATATACATTTACCGTTTAAGAGGAGGAAT	1.51
CGACATGTCCCGCTTCTTTCATTAATCCGTTAGCAACTTTTTTGCTATATACATTTACCTTTTAAGAGGAGGAAT	1.24
CGACATGTCCCGCTTCTTTCATTAATCCGTTAGCAACTTTTTTGCTATATACATTTACTTTTTAAGAGGAGGAAT	1.37
CGACATGTCCCGCTTCTTTCATTAATCCGTTAGCAACTTTTTTGCTATATACATTTTCCTTTTAAGAGGAGGAAT	0.343
CGACATGTCCCGCTTCTTTCATTAATCCGTTAGCAACTTTTTTGCTATATATATTTACCTTTTAAGAGGAGGAAT	0.911
CGACATGTCCCGCTTCTTTCATTAATCCGTTAGCAACTTTTTTGCTATATTCATTTACCTTTTAAGAGGAGGAAT	0.521
CGACATGTCCCGCTTCTTTCATTAATCCGTTAGCAACTTTTTTGTTATATACATTTACCTTTTAAGAGGAGGAAT	0.748
CGACATGTCCCGCTTCTTTCATTAATCCGTTAGCAACTTTTTTTCTATATACATTTACCTTTTAAGAGGAGGAAT	0.658
CGACATGTCCCGCTTCTTTCATTAATCCGTTAGCAAGCGTTTTGCTATATACATTTACCTTTTAAGAGGAGGAAT	0.684
CGACATGTCCCGCTTCTTTCATTAATCCGTTAGCAAGTGATTTGCTATATACATTTACCTTTTAAGAGGAGGAAT	1.25
CGACATGTCCCGCTTCTTTCATTAATCCGTTAGCAAGTGTTATGCTATATACATTTACCTTTTAAGAGGAGGAAT	0.19
CGACATGTCCCGCTTCTTTCATTAATCCGTTAGCAAGTGTTTTACTATATACATTTACCTTTTAAGAGGAGGAAT	0.824
CGACATGTCCCGCTTCTTTCATTAATCCGTTAGCAAGTGTTTTGCTAAATACATTTACCTTTTAAGAGGAGGAAT	0.596
CGACATGTCCCGCTTCTTTCATTAATCCGTTAGCAAGTGTTTTGCTATAAACATTTACCTTTTAAGAGGAGGAAT	0.659
CGACATGTCCCGCTTCTTTCATTAATCCGTTAGCAAGTGTTTTGCTATATAAATTTACCTTTTAAGAGGAGGAAT	0.803
CGACATGTCCCGCTTCTTTCATTAATCCGTTAGCAAGTGTTTTGCTATATACATCTACCTTTTAAGAGGAGGAAT	0.494
CGACATGTCCCGCTTCTTTCATTAATCCGTTAGCAAGTGTTTTGCTATATACATTTACCTTTTAAGAGGAGGAAT	0.995

Source: the supplement of paper PMC11780869
